Earlier results on 1 substance are cited in paper PMC6447450.

A word on the Kd: it is the concentration at which binding is half-saturated.

This data set deals with Mcl-1 (Homo sapiens) (UniProt Q07820).
Mcl-1 (Homo sapiens), sequence (Q07820 whole entry): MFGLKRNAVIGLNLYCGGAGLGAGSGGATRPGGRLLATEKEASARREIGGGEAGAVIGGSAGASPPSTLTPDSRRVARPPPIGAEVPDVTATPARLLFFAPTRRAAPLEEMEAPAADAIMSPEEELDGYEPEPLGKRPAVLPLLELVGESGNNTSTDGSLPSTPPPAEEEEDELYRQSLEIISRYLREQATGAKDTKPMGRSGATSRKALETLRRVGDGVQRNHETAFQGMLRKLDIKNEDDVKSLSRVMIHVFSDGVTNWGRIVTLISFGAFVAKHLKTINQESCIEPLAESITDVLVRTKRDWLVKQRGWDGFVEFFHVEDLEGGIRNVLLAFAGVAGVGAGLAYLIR

native BH3 peptide (BIM, 2PQK) BH3, sequence (O43521 143-165): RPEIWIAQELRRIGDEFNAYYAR

Take “native BH3 peptide (BIM, 2PQK) BH3 (from UniProt O43521)”: the equilibrium dissociation constant (Kd) was 1 nM.
